Data on 3 molecules can be found in paper PMC3832608.

The assay deals with T1, Corticotropin Releasing Factor receptor 2 (CRF2) (human (endogenous in HT-29)) (UniProt Q13324).
T1 sequence: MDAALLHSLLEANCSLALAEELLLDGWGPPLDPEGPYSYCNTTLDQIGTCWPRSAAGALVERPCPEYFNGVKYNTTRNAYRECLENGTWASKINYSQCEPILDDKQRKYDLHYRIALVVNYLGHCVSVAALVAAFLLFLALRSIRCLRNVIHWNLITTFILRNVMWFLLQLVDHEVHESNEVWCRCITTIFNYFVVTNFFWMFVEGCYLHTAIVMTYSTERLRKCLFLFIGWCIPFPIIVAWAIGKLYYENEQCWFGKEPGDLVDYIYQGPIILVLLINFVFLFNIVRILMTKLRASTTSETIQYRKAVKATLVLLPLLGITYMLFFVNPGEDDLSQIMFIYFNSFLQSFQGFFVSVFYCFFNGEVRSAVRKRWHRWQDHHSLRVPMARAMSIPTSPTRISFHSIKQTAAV

With SEEPPISLDLTFHLLREVLEMARAEQLAQQAHSNRKLMEIIGK [Corticotropin releasing factor (CRF)], the cAMP production by HT-29 cells treated with 1 µM CRF (ELISA kit); completely reversed by 1 µM astressin2b (A2b) (pM of cAMP/10^5 cells) worked out at 0.5.

The molecule IVLSLDVPIGLLQILLEQARARAAREQATTNARILARVGHC [Urocortin 2 (Ucn2)] came in with a cAMP production by HT-29 cells treated with 1 µM Ucn2 (ELISA kit); completely reversed by 1 µM astressin2b (A2b) (pM of cAMP/10^5 cells) of 1.

Molecule FTLSLDVPTNIMNLLFNIAKAKNLRAQAAANAHLMAQI [Urocortin 3 (Ucn3)] had a cAMP production by HT-29 cells treated with 1 µM Ucn3 (ELISA kit); completely reversed by 1 µM astressin2b (A2b) (pM of cAMP/10^5 cells) of 2.4.
